Usually stoichiometry N stands for the number of molecules, sites or subunits per partner or assembly.

The test deals with H1 NC99 HA trimer (full-length trimeric ectodomain of H1N1 A/New Caledonia/20/1999 hemagglutinin) (influenza A virus H1N1 A/New Caledonia/20/1999). Briefly: cryo-EM structure; HA NC99 and Fab mixed at a molar ratio of 1:1.5 (HA protomer:Fab), 5 min at room temperature; graphene grids, 0.01 mg/ml.

Regarding “H1 NC99 HA trimer (full-length trimeric ectodomain of H1N1 A/New Caledonia/20/1999 hemagglutinin) (natural protein)”, the stoichiometry N was found to be 3.

The values are drawn from paper doi:10.1101/2025.02.21.639368.
